Measurements reported in patent US6858583B2, “Hemoglobin alpha chain peptide fragments useful for inhibiting stem cell proliferation” (Wellstat Therapeutics Corporation, priority 1993, dated 2005).

B1: myoglobin: structurally related protein, inactive in the assay (protein, UniProt P02144 2-154, looked up)
Myoglobin: GLSDGEWQLVLNVWGKVEADIPGHGQEVLIRLFKGHPETLEKFDKFKHLKSEDEMKASEDLKKHGATVLTALGGILKKKGHHEAEIKPLAQSHATKHKIPVKYLEFISECIIQVLQSKHPGDFGADAQGAMNKALELFRKDMASNYKELGFQG
B2: macrophage inflammatory protein 1-alpha (protein, UniProt P10147 24-92, looked up)
C-C motif chemokine 3: SLAADTPTACCFSYTSRQIPQNFIADYFETSSQCSKPGVIFLTKRSRQVCADPSEEWVQKYVSDLELSA

Assays:
CFU-MIX = CFU-MIX cycling assay in vitro with Ara C; type: cell-based, mouse
Procedure: A similar assay can be performed in vitro, using the cycling status of CFU-MIX instead of CFU-S. The assay is performed as described above for the CFU-S assay except that cytosine arabinoside (Ara C, 30 mg/ml) is used as the cycle-specific toxic agent instead of high dose tritiated thymidine (see B. I. Lord in Haemopoiesis—A Practical Approach, N. G. Testa and G. Molineux (Eds.), IRL Press 1993; Pragnell et al. in Culture of Hematopoietic Cells, R. I. Freshney, I. B. Pragnell and M. G. Freshney (Eds.), Wiley Liss 1994) and a mouse strain with high endogenous cycling rates (Balb/c) is used instead of testosterone-treated BDF1 mice.
To test the activity of these sequences, the CFU-MIX cycling assay was conducted as described in Example 14. As shown in Tables 17-19, these peptides all are active in this assay.

HPP-CFC = test: High proliferative potential colony (HPP-CFC) assay after pre-incubation; type: cell-based, mouse; conditions: 200 ng/ml, 4 hours pre-incubation, day 14
Procedure: An in vitro assay for assessing murine reconstituting stem cells and early precursors is the high proliferative potential colony ([…]) assay; other related assays, e.g., CFU-A, CFU-GM, CFU-E, and CFU-GEMM, detect progressively restricted progenitor populations (M. Moore, Blood 177:2122-2128, 1991). […] BDF1 mice were treated with 5-fluorouracil (200 mg/kg i.p.) before their bone marrow was assayed for HPP-CFC numbers. Cells were washed by centrifugation and incubated at densities of 10^6 to 5×10^6 /ml in medium with either no added agent (Controls), pINPROL (25 ng/ml) or MIP-1α (200 ng/ml) for 4 hours. After incubation, cells were washed and plated in agar (0.3%) with 30% FCS and combined conditioned medium from 5637 and WEHI-3B cell lines (7.5% of each conditioned medium, as recommended by Sharp et al., 1991). Plating concentration was 5×10^4 cells/ml in 60 mm dishes.

Molecule	activity in the CFU-MIX cycling assay (CFU-MIX)	% of Control (HPP-CFU) (HPP-CFC)
B1	inactive	–
B2	–	101%
